Changes are numbered by the printed parent chain. In names and notes the source's numbering stands. One block for each binder: values may come before it.
Target: T1, Beta - Amyloid (1 - 42) - Lys(Biotin) - NH2, Human (human, UniProt P05067 672-713, Lys(Biotin) added at the C-terminus; C-terminal amide (NH2))
T1 construct: amyloid-beta peptide (1-42), human, cut product of the amyloid precursor protein; numbers count on: the Aβ peptide; added C-terminal lysine that carries the biotin, amidated; Held on streptavidin biosensors by the C-terminal biotin; also called monomeric C-terminally biotinylated Aβ42; C-terminally immobilized monomeric Aβ42; source: bought: Anaspec
Assay: BLI; C-terminally biotinylated monomeric Aβ42 (5 μg/ml) on streptavidin biosensors; antibodies at 20 μM in PBS + 0.1% BSA + 0.02% TWEEN 20, 30°C; association 900 s, dissociation 1200 s; signal of biocytin-coated sensors subtracted
Conditions: both partners purified

T1 sequence (P05067 other isoform, or with tags, fused parts or gaps): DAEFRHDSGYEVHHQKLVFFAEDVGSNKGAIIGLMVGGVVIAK

binding result: binds
B1: DesAb-Aβ(3–9) (antibody, V domains shown)
VH: EVQLVESGGGLVQPGGSLRLSCAASGFNIKDTYIGWVRRAPGKGKEWVASIYPTNGYTRYADSVKGRFTISADTSKNTAYLQMNSLRAEDTAVYYCAAGSHETLTLREEEAAAWGQGTLVTVSS
notes: single-domain antibody on a human VH scaffold with the in-silico-designed CDR3 loop HETLTLR and a thermally stabilizing mutation; No cleavage of the tag is told; also called the starting construct; starting single-domain antibody; source: E. coli BL21 (DE3)-Gold, pRSET-B vector, purified (Ni-NTA, SEC); not shown: His6, N-terminal, kept

binding result: binds
B2: DesAb-Aβ(3–9) (T138captamine) (antibody, V domains shown)
VH: B1 VH with T103C
modifications: position 138: non-canonical side chain, captamine (2-(dimethylamino)ethanethiol) added to dehydroalanine (Dha) by thiol-Michael addition; epimeric mixture of D and L side chains
notes: T138 is replaced through T138C and Dha by the captamine adduct; The new residue at 138 is written as C because the thiol adduct of Dha is an S-alkylated cysteine (S-(2-dimethylaminoethyl)cysteine); also called the captamine mutant; not shown: His6, N-terminal, kept

Source: article PMC7837213, “Systematic Activity Maturation of a Single-Domain Antibody with Non-canonical Amino Acids through Chemical Mutagenesis” (Cell Chemical Biology, 2021)
